According to the Immune Epitope Database (IEDB):

Assays:
HLA-A*30:02 = assay: IEDB peptide-MHC binding, purified MHC/competitive/radioactivity; filed as Kd, often an IC50 or EC50 that approximates it; ≥ and ≤ were set here for values at or beyond the usual limits of such assays
HLA-A*26:01 = assay: as above
HLA-A*23:01 = assay: as above
HLA-A*24:02 [1] = assay: as above
HLA-A*01:01 = assay: as above
HLA-A*29:02 = assay: as above
HLA-B*15:01 = assay: as above
HLA-A*31:01 = assay: as above; details: source organism: Dengue virus 4 Philippines/H241/1956
HLA-A*30:01 = assay: as above
HLA-A*03:01 = assay: as above; details: source organism: Dengue virus 4 Philippines/H241/1956
HLA-A*32:01 = assay: as above
HLA-A*11:01 = assay: as above; details: source organism: Dengue virus 4 Philippines/H241/1956
HLA-A*68:01 = assay: as above; details: source organism: Dengue virus 4 Philippines/H241/1956
HLA-B*35:01 = assay: as above; details: source organism: Dengue virus 4 Philippines/H241/1956
HLA-B*07:02 = assay: as above
HLA-B*08:01 = assay: as above; details: source organism: Dengue virus 1 Nauru/West Pac/1974
HLA-A*02:02 = assay: as above; details: source organism: Vaccinia virus WR
HLA-A*02:03 = assay: as above; details: source organism: Vaccinia virus WR
HLA-A*02:01 = assay: as above; details: source organism: Vaccinia virus WR
HLA-A*02:06 = assay: as above; details: source organism: Vaccinia virus WR
HLA-A*24:02 [2] = assay: IEDB peptide-MHC binding, purified MHC/competitive/fluorescence; ≥ and ≤ were set here for values at or beyond the usual limits of such assays
[3] = source organism: Lymphocytic choriomeningitis virus (strain Armstrong)
[4] = source organism: SARS coronavirus Tor2
[5] = source organism: Dengue virus 1 Brazil/97-11/1997
[6] = source organism: Dengue virus 3 Martinique/1243/1999
[7] = source organism: Dengue virus 4 Philippines/H241/1956
[8] = source organism: Dengue virus 1 Nauru/West Pac/1974
[9] = source organism: Vaccinia virus WR

**Q.** Which Kd (HLA-A*30:02; [3]) does the source give for QYVRSGKDHV here?
**A.** 1440 nM

**Q.** And the Kd (HLA-A*26:01; [3])?
**A.** ≥ 69700 nM

**Q.** What about the Kd (HLA-A*23:01; [3]) of the same sequence?
**A.** ≥ 50200 nM

**Q.** And the Kd (HLA-A*24:02 [1]; [3])?
**A.** ≥ 70300 nM

**Q.** And the Kd (HLA-A*01:01; [3])?
**A.** ≥ 70400 nM

**Q.** And the Kd (HLA-A*29:02; [3])?
**A.** ≥ 71400 nM

**Q.** VFSAVGNICY was tested. Which Kd (HLA-A*30:02; [4]) did it give?
**A.** 13.8 nM

**Q.** What about the Kd (HLA-A*26:01; [4]) of the same sequence?
**A.** 1280 nM

**Q.** And the Kd (HLA-A*23:01; [4])?
**A.** 15400 nM

**Q.** What about the Kd (HLA-A*24:02 [1]; [4]) of the same sequence?
**A.** 7130 nM

**Q.** What about the Kd (HLA-A*01:01; [4]) of the same sequence?
**A.** 60.5 nM

**Q.** What about the Kd (HLA-A*29:02; [4]) of the same sequence?
**A.** 28.3 nM

**Q.** How did the Kd (HLA-B*15:01; [5]) turn out when KQERGKSLLF was run?
**A.** 118 nM

**Q.** Which Kd (HLA-B*15:01; [6]) does the source give for SMRKTDWLPM here?
**A.** 134 nM

**Q.** How did the Kd (HLA-A*31:01) turn out when KTFDTEYPK was run?
**A.** 29.8 nM

**Q.** And the Kd (HLA-A*30:01; [7])?
**A.** 80 nM

**Q.** What about the Kd (HLA-A*03:01) of the same sequence?
**A.** 26.1 nM

**Q.** And the Kd (HLA-A*32:01; [7])?
**A.** 2800 nM

**Q.** And the Kd (HLA-A*11:01)?
**A.** 126 nM

**Q.** And the Kd (HLA-A*68:01)?
**A.** 104 nM

**Q.** VMPVHTLSI was tested. Which Kd (HLA-A*30:02; [4]) did it give?
**A.** 4570 nM

**Q.** What about the Kd (HLA-A*26:01; [4]) of the same sequence?
**A.** ≥ 20700 nM

**Q.** What about the Kd (HLA-A*23:01; [4]) of the same sequence?
**A.** 109 nM

**Q.** What about the Kd (HLA-A*24:02 [1]; [4]) of the same sequence?
**A.** 47.2 nM

**Q.** What about the Kd (HLA-A*01:01; [4]) of the same sequence?
**A.** ≥ 78100 nM

**Q.** And the Kd (HLA-A*29:02; [4])?
**A.** 141 nM

**Q.** TFKTAHAKK was tested. Which Kd (HLA-A*30:01; [5]) did it give?
**A.** 99.4 nM

**Q.** What does the source list for APSTGSASSM?
**A.** Kd (HLA-B*35:01): 377 nM; Kd (HLA-B*07:02; [7]): 19.3 nM

**Q.** Which Kd (HLA-B*08:01) does the source give for RARNRVSTV here?
**A.** 9.01 nM

**Q.** And the Kd (HLA-B*07:02; [8])?
**A.** 2.62 nM

**Q.** And the Kd (HLA-A*30:01; [8])?
**A.** 23 nM

**Q.** How did the Kd (HLA-A*30:01; [6]) turn out when KADRVIDPRR was run?
**A.** 5180 nM

**Q.** With HQHLAIMFK as the sequence, how does the Kd (HLA-A*30:01; [9]) read?
**A.** 4.99 nM

**Q.** For DSEEYHLLY, which Kd (HLA-A*30:02; [3]) is on record?
**A.** 3750 nM

**Q.** What about the Kd (HLA-A*26:01; [3]) of the same sequence?
**A.** 14400 nM

**Q.** What about the Kd (HLA-A*30:01; [3]) of the same sequence?
**A.** 11300 nM

**Q.** And the Kd (HLA-A*32:01; [3])?
**A.** ≥ 77800 nM

**Q.** And the Kd (HLA-A*01:01; [3])?
**A.** 2.78 nM

**Q.** What about the Kd (HLA-A*29:02; [3]) of the same sequence?
**A.** 289 nM

**Q.** For SLFIESSICL, which Kd (HLA-A*02:02) is on record?
**A.** 99.2 nM

**Q.** What about the Kd (HLA-A*02:03) of the same sequence?
**A.** 293 nM

**Q.** What about the Kd (HLA-A*02:01) of the same sequence?
**A.** 2 nM

**Q.** And the Kd (HLA-A*02:06)?
**A.** 982 nM

**Q.** How did the Kd (HLA-B*15:01; [9]) turn out when FAISYCRAF was run?
**A.** 76.1 nM

**Q.** With LKVFLPNPA as the sequence, how does the IC50 (HLA-A*24:02 [2]; source organism: Variola virus) read?
**A.** 20300 nM

**Q.** With IYTSGKRSN as the sequence, how does the IC50 (HLA-A*24:02 [2]; source organism: Zaire ebolavirus) read?
**A.** 6370 nM
